According to patent US7867500B2, “Cofactor that modulates steroid receptor activities” (The United States of America as represented by the …, priority 2004, dated 2011):

Molecular target: T1, GR (Rattus norvegicus, UniProt P06536)
T1 construct: expressed in transfected cells; host or cells: Cos-7
T1 sequence (P06536 1-795): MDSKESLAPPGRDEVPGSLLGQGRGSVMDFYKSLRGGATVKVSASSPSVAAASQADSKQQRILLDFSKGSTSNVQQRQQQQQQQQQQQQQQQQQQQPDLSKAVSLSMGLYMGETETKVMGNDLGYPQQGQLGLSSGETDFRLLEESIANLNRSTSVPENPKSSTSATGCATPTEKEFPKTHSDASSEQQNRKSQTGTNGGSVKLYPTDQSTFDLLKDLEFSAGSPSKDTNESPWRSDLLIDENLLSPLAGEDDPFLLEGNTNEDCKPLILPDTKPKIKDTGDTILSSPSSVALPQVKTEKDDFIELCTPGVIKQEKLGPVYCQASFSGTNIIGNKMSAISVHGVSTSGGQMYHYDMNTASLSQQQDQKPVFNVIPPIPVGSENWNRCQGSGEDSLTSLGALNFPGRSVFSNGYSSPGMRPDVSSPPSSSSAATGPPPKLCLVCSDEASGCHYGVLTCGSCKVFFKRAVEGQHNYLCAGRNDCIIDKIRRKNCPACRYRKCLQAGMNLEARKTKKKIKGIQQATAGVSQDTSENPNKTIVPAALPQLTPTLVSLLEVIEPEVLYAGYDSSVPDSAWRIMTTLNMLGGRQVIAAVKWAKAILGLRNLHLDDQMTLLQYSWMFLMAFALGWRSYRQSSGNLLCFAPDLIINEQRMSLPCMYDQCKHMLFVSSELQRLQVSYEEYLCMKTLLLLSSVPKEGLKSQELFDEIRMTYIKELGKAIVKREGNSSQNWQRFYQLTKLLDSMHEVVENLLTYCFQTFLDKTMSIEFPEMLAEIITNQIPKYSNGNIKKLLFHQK
T1 sequence (Q6EMB2 5-1281 A149V/F1267S partner limits assumed): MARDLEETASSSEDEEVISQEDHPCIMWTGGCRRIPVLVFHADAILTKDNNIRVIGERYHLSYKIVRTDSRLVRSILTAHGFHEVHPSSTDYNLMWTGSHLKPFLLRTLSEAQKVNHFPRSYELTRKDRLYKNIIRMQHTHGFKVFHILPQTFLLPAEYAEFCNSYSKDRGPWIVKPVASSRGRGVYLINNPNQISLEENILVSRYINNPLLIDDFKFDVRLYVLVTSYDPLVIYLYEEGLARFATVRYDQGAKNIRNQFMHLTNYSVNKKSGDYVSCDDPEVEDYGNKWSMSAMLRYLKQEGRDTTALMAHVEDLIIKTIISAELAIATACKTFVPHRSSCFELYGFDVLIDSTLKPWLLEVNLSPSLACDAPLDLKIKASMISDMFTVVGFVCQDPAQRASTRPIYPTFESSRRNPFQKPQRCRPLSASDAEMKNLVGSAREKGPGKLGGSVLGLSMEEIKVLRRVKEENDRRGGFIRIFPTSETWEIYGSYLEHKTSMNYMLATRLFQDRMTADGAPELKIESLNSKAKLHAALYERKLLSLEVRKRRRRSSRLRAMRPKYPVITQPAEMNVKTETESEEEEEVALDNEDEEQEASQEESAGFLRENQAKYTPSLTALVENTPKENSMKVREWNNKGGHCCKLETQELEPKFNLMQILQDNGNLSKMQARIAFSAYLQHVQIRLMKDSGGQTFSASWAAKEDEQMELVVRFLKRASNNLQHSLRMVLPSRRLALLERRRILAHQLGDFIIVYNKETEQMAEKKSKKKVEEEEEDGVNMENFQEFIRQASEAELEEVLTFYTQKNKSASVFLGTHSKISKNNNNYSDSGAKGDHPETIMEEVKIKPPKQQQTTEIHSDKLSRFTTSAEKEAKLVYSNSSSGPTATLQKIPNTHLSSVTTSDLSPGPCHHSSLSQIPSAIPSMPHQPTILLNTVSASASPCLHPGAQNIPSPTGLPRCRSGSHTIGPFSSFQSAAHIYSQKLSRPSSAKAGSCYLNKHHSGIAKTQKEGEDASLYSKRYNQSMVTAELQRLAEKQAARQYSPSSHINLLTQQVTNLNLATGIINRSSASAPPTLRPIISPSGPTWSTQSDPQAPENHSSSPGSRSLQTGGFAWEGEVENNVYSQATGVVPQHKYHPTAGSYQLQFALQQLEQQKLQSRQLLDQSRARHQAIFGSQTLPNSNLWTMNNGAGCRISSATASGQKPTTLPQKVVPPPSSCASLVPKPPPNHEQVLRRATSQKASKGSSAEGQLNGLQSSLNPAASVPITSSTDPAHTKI
Assay: Whole cell co-immunoprecipitation in Cos-7 cells: GR
Assay type: binding
Conditions: EtOH ± 1 μM Dex, 2 hr
Experimental: FIG. 7C1-3 illustrate whole cell co-immunoprecipitation of STAMP, GR, and TIF2/GRIP1. Cos-7 cells that had been co-transfected with Flag/STAMP (or Flag itself), HA/GRIP1, and GR plasmids (10 μg of each/150 mm dish) for 48 hr were treated for 2 hr with EtOH±1 μM Dex before being lysed as described in Example 1. Lysate was either analyzed on SDS-PAGE gels or treated with anti-Flag antibody to immunoprecipitate Flag/STAMP. The pellets were separated on SDS-PAGE gels and Western blotted with anti-Flag (FIG. 7C1), anti-HA (FIG. 7C2), or anti-GR antibodies (FIG. 7C3). In each panel, lane 1=5.7% of input lysate, lane 2=IP pellet of Flag/STAMP, HA/GRIP1, and GR+EtOH, lane 3=IP pellet of Flag/STAMP, HA/GRIP1, and GR+Dex, and lane 4=control IP pellet of Flag, HA/GRIP1, and GR+EtOH. Similar results were obtained in a second experiment.
Immunoprecipitations were conducted as generally described in Wang et al. (2004) Mol. Endocrinol. 18: 1476-95, with slight modifications. The day before transfection, Cos-7 cells were seeded into 150 mm dishes at 200,000 cells per dish containing 20 ml of media. On the next day, about 30 μg of DNA/dish was transfected with 60 μl of FuGene reagent. […]

B1: STAMP: SRC-1 and TIF2 Associated Modulatory Protein, 1277 amino acid human polypeptide, expressed from transfected plasmid (protein)
chain: MARDLEETASSSEDEEVISQEDHPCIMWTGGCRRIPVLVFHADAILTKDNNIRVIGERYHLSYKIVRTDSRLVRSILTAHGFHEVHPSSTDYNLMWTGSHLKPFLLRTLSEAQKVNHFPRSYELTRKDRLYKNIIRMQHTHGFKVFHILPQTFLLPAEYAEFCNSYSKDRGPWIVKPVASSRGRGVYLINNPNQISLEENILVSRYINNPLLIDDFKFDVRLYVLVTSYDPLVIYLYEEGLARFATVRYDQGAKNIRNQFMHLTNYSVNKKSGDYVSCDDPEVEDYGNKWSMSAMLRYLKQEGRDTTALMAHVEDLIIKTIISAELAIATACKTFVPHRSSCFELYGFDVLIDSTLKPWLLEVNLSPSLACDAPLDLKIKASMISDMFTVVGFVCQDPAQRASTRPIYPTFESSRRNPFQKPQRCRPLSASDAEMKNLVGSAREKGPGKLGGSVLGLSMEEIKVLRRVKEENDRRGGFIRIFPTSETWEIYGSYLEHKTSMNYMLATRLFQDRMTADGAPELKIESLNSKAKLHAALYERKLLSLEVRKRRRRSSRLRAMRPKYPVITQPAEMNVKTETESEEEEEVALDNEDEEQEASQEESAGFLRENQAKYTPSLTALVENTPKENSMKVREWNNKGGHCCKLETQELEPKFNLMQILQDNGNLSKMQARIAFSAYLQHVQIRLMKDSGGQTFSASWAAKEDEQMELVVRFLKRASNNLQHSLRMVLPSRRLALLERRRILAHQLGDFIIVYNKETEQMAEKKSKKKVEEEEEDGVNMENFQEFIRQASEAELEEVLTFYTQKNKSASVFLGTHSKISKNNNNYSDSGAKGDHPETIMEEVKIKPPKQQQTTEIHSDKLSRFTTSAEKEAKLVYSNSSSGPTATLQKIPNTHLSSVTTSDLSPGPCHHSSLSQIPSAIPSMPHQPTILLNTVSASASPCLHPGAQNIPSPTGLPRCRSGSHTIGPFSSFQSAAHIYSQKLSRPSSAKAGSCYLNKHHSGIAKTQKEGEDASLYSKRYNQSMVTAELQRLAEKQAARQYSPSSHINLLTQQVTNLNLATGIINRSSASAPPTLRPIISPSGPTWSTQSDPQAPENHSSSPGSRSLQTGGFAWEGEVENNVYSQATGVVPQHKYHPTAGSYQLQFALQQLEQQKLQSRQLLDQSRARHQAIFGSQTLPNSNLWTMNNGAGCRISSATASGQKPTTLPQKVVPPPSSCASLVPKPPPNHEQVLRRATSQKASKGSSAEGQLNGLQSSLNPAASVPITSSTDPAHTKI
With B1 the “co-immunoprecipitation of GR with Flag-STAMP by anti-Flag antibody” value was “co-immunoprecipitated”.
